Reference: paper PMC8792006, “Engineering the stambomycin modular polyketide synthase yields 37-membered mini-stambomycins” (Nature Communications, 2022)

T1: ^NDD9 Val (N-terminal docking domain of stambomycin PKS subunit Pks9, version with the Val start site) (Streptomyces ambofaciens ATCC23877)
T1 chain: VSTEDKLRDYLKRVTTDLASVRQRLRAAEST

T2: ^NDD9 Met (N-terminal docking domain of stambomycin PKS subunit Pks9, version with the Met start site) (Streptomyces ambofaciens ATCC23877)
T2 chain: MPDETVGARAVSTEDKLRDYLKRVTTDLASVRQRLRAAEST

T3: ^NDD5 (N-terminal docking domain of stambomycin PKS subunit Pks5) (Streptomyces ambofaciens ATCC23877)
T3 chain: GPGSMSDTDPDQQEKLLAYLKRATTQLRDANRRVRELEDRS


Tests used:
[1] = target: the molecule itself; experiment: SEC-MALS; Superdex75 10/300, 20 °C, 0.5 mL min^-1, 20 mM HEPES, 100 mM NaCl, 0.5 mM TCEP, pH 7.5; each docking domain alone
[2] = target: T1, ^NDD9 Val (N-terminal docking domain of …); experiment: ITC; ^CDD (700 μM) in the syringe titrated into the ^NDD in the cell (^NDD5 70 μM; ^NDD9 Met 80 μM; ^NDD9 Val 120 μM); 20 °C; buffer GF (20 mM HEPES, 100 mM NaCl, 0.5 mM TCEP, pH 7.5); one-site binding model; two independent titrations; conditions: both partners purified
[3] = target: T2, ^NDD9 Met (N-terminal docking domain of …); experiment: as above; conditions: both partners purified
[4] = target: T3, ^NDD5 (N-terminal docking domain of …); experiment: as above; conditions: both partners purified

| Binder | stoichiometry N [1] | Kd [2] [µM] | stoichiometry N [2] | Kd [3] [µM] | stoichiometry N [3] | Kd [4] [µM] | stoichiometry N [4] |
| --- | --- | --- | --- | --- | --- | --- | --- |
| ^CDD8 (C-terminal docking domain of stambomycin PKS subunit Pks8) (domain or fragment) GPGSYGPAALLADLDRLDAALAGTGPGDETRSRVISRLHALLARHDTADGSGLVTAAGNLDAADDDNLFAFIDNELGA | 2 | 22 ± 1 | 2 monomeric ^NDDs per homodimeric ^CDD | 33 ± 2 | 2 monomeric ^NDDs per homodimeric ^CDD |  |  |
| ^CDD4 wt (C-terminal docking domain of stambomycin PKS subunit Pks4) (domain or fragment) GPGSYADRLLAELARLEADLTRMDGDEEDRTRLAARLRALADRCQGERTRRDDNLDAASIEEVFDLLDTEFETP | 2 |  |  |  |  | 14.5 ± 0.9 | 2 monomeric ^NDDs per homodimeric ^CDD |
| ^CDD4 SDM (C-terminal docking domain of Pks4 with 3 specificity-code residues mutated to match ^CDD8) (domain or fragment) GPGSYADRLLAELARLEADLTRMDGDEEDRTRLAARLRALADRCQGERTRRDDNLDAASIDEVFDLIDTELETP | 2 |  |  |  |  |  |  |
| ^CDD4 helix swap (C-terminal docking domain of Pks4 with its docking α-helix exchanged for that of ^CDD8) (domain or fragment) GPGSYADRLLAELARLEADLTRMDGDEEDRTRLAARLRALADRCQGERTRRDDNLDAADDDNLFAFIDNELGA | 2 | 21 ± 0.3 |  |  |  |  |  |
